# From PMC12501291, “Cancer-associated fibroblasts expressing FSTL3 promote vasculogenic mimicry formation and drive colon cancer malignancy” (Cell Death & Disease, 2025)
# B1: FSTL3-targeting antibodies (aFSTL3) (antibody, V domains shown)
# VH: EVQLQQSAAELARPGASVKMSCKASGYSFTTYTMHWVKQRPGQGLEWIGYIHPSSGYTDHIQKFKDKTILTADKSSSTAYMQLNSLTSEDSAVYYCARLDYGYWGQGTTLTVSS
# VL: DILMTQTPLSLPVSLGDQASISCRSSQSIVHSNGNTYLEWYLQKPGQSPKLLIYKVSNRFSGVPDRFTGSGSGTDFTLKISRVEAADLGVYYCFQSSHIPPTFGGGTKLEIK
# notes: cloned into the PTT5-human IgG1 CH vector; cloned into the PTT5-human kappa CL vector; Human IgG1 CH, human kappa CL; source: 293F cells, transfected, purified (Protein A); made by SGE BIOTECH
# Target: T1, FSTL3-FC (biotin) (UniProt O95633, biotin)
# T1 construct: FSTL3 gene fused with a human Fc fragment in pCDNA3.4; also called biotinylated FSTL3-FC; source: 293F cells, transfected, purified (Protein A), biotinylated, ultrafiltration; made by SGE BIOTECH
# T1 sequence (O95633 27-263): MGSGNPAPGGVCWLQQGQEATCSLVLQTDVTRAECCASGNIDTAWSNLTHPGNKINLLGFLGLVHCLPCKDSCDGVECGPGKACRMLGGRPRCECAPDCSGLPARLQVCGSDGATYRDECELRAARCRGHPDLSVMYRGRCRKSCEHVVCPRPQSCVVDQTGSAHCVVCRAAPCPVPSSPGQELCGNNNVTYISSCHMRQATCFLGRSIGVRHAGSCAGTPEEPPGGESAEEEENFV
# Assay: ELISA; sandwich ELISA with biotinylated FSTL3-FC, aFSTL3 and Activin A-mFC; in vitro
# Details: both partners purified
binder,measurement,value
B1,binding result,binds
